From the domain aggregation screens of Martell et al. (2025)

Test: soluble fraction after stress (log2 fold change); higher = more stays soluble; pooled small domains, quantitative proteomics
Details: stress: pH 4
Summary of the method: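 Following acid stress at pH 4, the amount of each small protein domain still soluble was measured in pooled custom libraries by high-throughput quantitative proteomics. Its fold change, on a log2 scale, is higher when more of the domain stayed soluble. This fold change is taken as a measure of aggregation propensity.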

Sequence | soluble fraction (log2)
HMWKSEAGKKIIESLAQKYNKSNAQIILRWHIQMGYIVIPGARSENHIKENINIFDFKLTNEEINNILKLN | -0.124
HMSREEFLTELRKALQGRVSQQTVNDNLRYYEEYILTESHKGKTEAEVIAELGNPRLLAKSIIDAENAT | -0.0903
HMNSKKRQAILESLRSVTDHPTAEMIYNRLKPEYPDLSLGTVYRNLAMFLEEGQVISVGTVDGQERYDAR | 0.34
HMQGVTVPDLTRVSLEEAVATISSLGLRYEISDRRSNAAFPANYVLDQAPGANTIVKPNRKVYLTVNAA | 0.381
HMTRRVIRAPAAGIMRSNVKLGDLVKEGDVIAWIGEHEIKAPLTGMVRGLLNDGLAVVGGFKIGDI | 0.157
HMISSRDAAVIGLVENIQRAQLNAIDESSGFKHLMETYNLESKEIALLVGKSRSYVSNSLRLSK | -0.235
HMTAIKAGDLVKITGTKYYGGQTIPGWVKNQNWYVQEVSGDRAVINKNESGTNAIMSPIRVSDLTPVS | -0.0468
HMKQQFTREQIIELMYKAYKKHKKKLNRVEIKKEKALPSYVTIGRYLNETSIKKIWEIVLSEKE | -0.388
HMGQVSEAGELEVAADRVIAANPEAVTKYKSGNENILQFLVGQMMKETKGAANPQVAAEILRKKIV | 0.0296
HMSAGKKSFTNSEFRRFLDALGEGLIVKHKKLGEGVVVEIRGDKAVIQFGDEQRLYELKTLYEYDLLR | -0.874
HMLERPLKLKSHYVSAINEKVAVQFQAGEERKSIMGTLTEVNQDTIVIDDRGSVTEIPFKSIIRAKTVF | -0.163
HMEARYQLREVSLDGLRSGMILNADVLSTDGVLMARKGLEVSGLLRSRLEAFAKMERIEPTFKVLVPIAPP | 0.284
HMRKKDGEAYVLPRPLKKGDSVLIYDIDKKGTVLQPPEKGGKTALIQAGIIQTRVPVSNLRLLE | -0.0646
HMGKEDLTAAIKKMTLNDKLDIHKIVANFQTNDSEEVITAVKWLMENNYLLKIKNNYTWNTKEK | 0.22
HMDISAFDTEFIISKFGGIRPMAQKLGVPVSTVQGWKQRQTIPQNRMGDILEAAKNYNLELTP | 0.114
HMSGYFSDKKLNELFEQYLIMREKKGKPVVGYQLKILIDRLNQVAANTKEKIEVVSNAIAGDWNTFYPIKR | 0.0685
HMVLANLQAAEQGDLGIKEGEKLTILQTRPDGWWTARNANGETGLVPK | 0.0851
HMQPPKIISTVEPYREVVREYLKQGVEMTAIWQRLRENYQYTGSYSSVRRFVAQLEPRQPEA | -0.135
HMYPATGTVVTAGGHLNMRSEPDRSGAILARIPNGTALTLTGKNGDWYAATYAGRSGYVSAQYISLS | -0.13
HMGSYANAWQLAEHAAKDMLGEVIYLLDGKEVHAGILETMSAESIKTASAENVDGKVVIRLVSK | -0.371
HMNADAPWSPFSPGFTGPMNRPVIGLVTKADLANPQRISLVESWLVQAGAQKVFVTSALENTGVDEMFIFL | -0.288
HMYEPPTEDEKRVLSLLATRESIVRSDVDRLLGVSQSTANRILKQMIEKYLISQEGTGKNTKYIK | -0.113
HMLPDYLIELKKKADSGDAVSQNDIGNIYLYGLPRVNIYPDEKNIGIGIDYLYKAAWQDQVNAMTTI | -0.397
HMSEKLTLEAANEAAGMRIDKWLAMQLPELSRSRIEALISGGGVVVNGKNPSKSLKLKGGEQIELEIPE | 0.108
HMKTSVGSKMMVMANNLSIRKSANLLSEKLADLSKGDMVEYISSTNGWNKVRYNGYVGYVSSYYLKDTGEV | 0.375
HMIEQEQAFLEQVLKKYSQEELVLTVGSRTLVKYSAGQLERLLEHYPHVRLASSPVNGEAGFLLSRG | -0.784

Sequence | soluble fraction (log2)
HMTTTPAERQRTILRSLNRVDPVSVDALARLTGVSVVTIRRDLSDLASRDLIRRVHGGALLPTR | 0.339
HMTIENTDTFLETLWEQVQRASVDENGIITSRVLIWDEGTKLDEILSWFDKRHSLGALYLQFG | -1.74
HMITSELALVKLVVKGANRVEALRVAETFRARALDVTLSSFVFELTGKPSKLDAFIGLMRSLGDTEILKR | -1.02
HMQSRYALLAGMLRARITEGDWVPGSAIPAETVLAKEHGVALGTMRQAIALLVSQGLLERQHGRGTFVRS | -0.0211
HMRNNKLRRANKLKTEFENLPHIGKKRAHVLLKAFGSTENLKMTTAQALSEAAKISLKQAEEVLEAVRG | -0.0912
HMKLVTIPNVIGKTKEDAMKTLKDLGVTVTVETKESEKDDGTVIAQSKAEGTKLTAGENVTITVSKKKK | -0.487
HMDSVVPNVVGMTAEKANKALTDAGLNVKITGATIGSGAVVHSQSIPAGTVTSKGTVVSIEMRFAAAEGD | -0.193
HMAFIEIMTEGDADGRGFQYPIPTYSITRDFDWSETENNKLLFEMTAKYGTPYFSNYINSDMEPSDV | -0.913
HMLLFNPGEVLKGFVLQSGTNNRVLLQIGDSRVIADTQTPLKAGEQLVLRVEETGPKTILQILG | 0.0206
HMLSNKIEQLRKEKGYTFAKLSELSGISTGRLSDLATGKRNNPTMDTLIKLADALDVTLDELVGR | -0.328
HMAEVIYGAGKTPAQMLGILRTMQAHGQKTVLITRLREEAAEEIGREIPLQYDKTAGVGIVGTLPQPDG | -0.0513
HMSSKTKVEDLGLSTRTLNALIGGSIKTAGGLTRKSESDLLSLDGLGEKGITEIKEALENIGLSLK | 0.0218
HMYPDNSGDIQQLAQNIFRQENVSVDRDGLALISSRLGSDHAATRSEIEKLALLAGPGGTLTFETISEVLG | -0.942
HMVLTYYSVLGVKTDATTEEIKSTYKQLAIRNHPDRGGSEEVMKMINLAAEILSDPKSRKEYDLSLDA | -1.48
HMGPPAVGAKLQVLRQARKLSLDELSRRAGVSKSMLSQVERNLANPTVAVLWRLATALGVGLADFLSP | -0.524
HMQDQVTLIVQVNGKLRGQISISTDATKELIEQTALANENVQKFVDGQSIKKIIIVPGRLVNIV | 0.22
HMAQVSDTGELEGVVDGVLAANAKSVADFQAGKENAFQYLIGQVMKETKGKANPEVVATLLRTKLS | 0.121
HMPFTLDGVNEGSRNDQAARMSGYLISKNLNMDFIKFFMQSWNRQNSPPLSQREINSVVDNVKRTHDRKNK | -0.697
HMKVRDTQYIIEAAISKNVIRKSKNIYYYGTDIIGRSLEDAIASLNDKKNQDIKMTILQEIES | 0.0993
HMNFKNMIDSLSGILFKKDPSAAIIDIGGVRLKVFITVGSYEQLPAKGEQVEILTYLHVKEDILNLYG | -0.819
HMKETLSDTVSRKLEDMITTQMKAGNRLPTEMVLAEMYSVGRSTIRESLKALSSKGLIVRKKDGTFVSDRV | 0.22
HMFLDKDTLNQLYRFGIALTGNEQDSQDVLHTAIERFLRNKPQQINQQAAYIRTIMRNYWYDELRKLKTQ | -0.0981
HMGVSVNVQPAILDWAMQKAQMGNAGSSVIEMIAKWISGEKAPTFNQIEDVSKKISIPFGFFFLKEPPIE | -1.21
HMLPDVSITGHIFIRSGSRLNRIFVGESTYHVGDMLDGKWLIESINSDSLELRSGTQTTELPL | -0.066
HMGRWQPSTSAKQHGESALLLERLLHLERLTVSEAFHVLTINHRLNLSLPEYRSLLAVVQLPK | -1.31
HMLSTQEYIKKNIENGSWKVGEKIPSENNLTEILGVSRASIRVAIQQFIALDVLNSIHGKGTFVKTNNIMG | 0.207

Sequence | soluble fraction (log2)
HMNVPFGYTIKDGLLVEQPDEKAILDNILTWKKGQMTVAEIAKKTGMETWKIYGILNYWRNK | -0.438
HMSEYEYALHEFGITKKQSQRIFDRLSIADLEERINAIQTTLKQRSDIDNPAAYAWTVLNAE | -0.767
HMRQYPSGVFKEEGVKAVYIHAGTPFLVIAAQYKIPLARLFEWNNLLPSTEARISQVIYLERPG | 0.238
HMTVGEAHLEEVYLKVLKQVEEQGTALIRTTDVETGRPAAGIRRRYMRGTLPDEWVAKFEALPGWTWAPG | -0.952
HMKIAEALNLRGDADSYERQEAIWLLEHIVGMSALELKYRGEQDLTEDQLQQYRSGLQRLEQGEPLAYVIG | -0.73
HMLAQYPGQVFSKEQIYNQVWKEPYYGVEDNVMSLIRRIRKKIEPDPSRPIYILTVWGIGYKFNN | 0.0406
HMPELSNNLDRDKVALKNFNESLKDGLTPAEAYANHLTNVSKAAQEAARQSNGLPVDIDKYHNSQLAASMA | ≥ 0.43
HMKSFIWKQYTVQITKKNVKNTNVRIKRDNPHVILMSIPYSATYKAGLLALETPHIRHWLDNYERKLKQ | 0.0309
HMLVSPLDEIPGIGRNRKKTLLNHFGSAKTIEGASLEDLKKVDGISELIAKKIYNYFHLNKNF | 0.104
HMTYIQSNLKFLRNKMNISQEELAKRLFVTHQTVSNHENGKSQPNFEMIEKYASFFNVPFEDLIHKDLSL | -0.309
HMGVRVEVDAVTPPGAMASGSVVFSDGESKKWSVDQFGRLAMTGGAPDYKPSDQDVMEFQQQLEQSL | -0.57
HMEGIAYDINTAPEHIDLKAEDMMATFNIGKTALWRWVKQKILPPPYEYRSQAAHWTIGQIRDWKTA | -0.417
HMNILVAISDTGEIWINKRRVDARAVQANIERLHAENPQGTVVIQADKQATTETLIKVMDASRAAGVFDVS | -0.759
HMDLRAPKPIKEMGEEYIKLYQYLRKGESENIVMSKMNISLDDYDYMRSEIEDKLSLYNMLDLLRKP | 0.0296
HMEWVVVPDVRRQLLPEAQRRVNKARLRLEVAGGWPAEPLLAMVVDQKPGPETRVPLNSIVVVVVRNLP | -0.0893
HMDIEHREMKLQKLVITADSPLVGKTLKESNVRQRYNFMVVGVEEGQKNLTMINPNRRFEVGDIVWVVGEE | -0.204
HMERAPAYPDGLTQREVEVLRLIASGKTDREIAEELFIGVRTVSTHVGNILNKTNSANRTEAASYANQQGL | -1.53
HMSTQVPDVKERSQEEARSILESAGFKVTPAVKTEDSADIAKDMVTKTDPAAGQSVPKGTTITIYVSS | 0.298
HMNNQILYERLRDLRERNHFTQAFVSSKLNIGRATYSNYERGKRTPSLDVIMDLASFYKVPFTYF | 0.113
HMKEAITVIGGKNNITFDASAQAEIGIYSMDGVQIQKKTISDNERIDLPAGMYVVTVKTGQANVSKVVVV | -0.145
HMRARTLSTTGGESLLTLAESLYPDDDRARARFIEATAAANPKLFADIAALTRVLPAGTTLRMPDLRA | 0.129
HMGALARLLASVEQELGVTRDRMTRTQKQEAVTLLNEWGAFTLRKSVEDVAEALGVSRFTVYNYLERAEA | -0.866
HMNPDDEMLLTYLTKLLVDKQFIVNSNDIFEYILRRVDRTYDGIYDIVSKLDVLSLEKKRQLTIPLIKEI | 0.103
HMEKPTRNKLVEIIIQNKNVTTEQMANLLNISRRAVAKHIKKLQEEGIIRRIGPDFGGHWEIVK | 0.225
